Assay results: PMC9482650, “Quantitative fragmentomics allow affinity mapping of interactomes” (Nature Communications, 2022)

T1: SYNJ2BP, P57105
T1 sequence (P57105 8-110, limits assumed, looked up): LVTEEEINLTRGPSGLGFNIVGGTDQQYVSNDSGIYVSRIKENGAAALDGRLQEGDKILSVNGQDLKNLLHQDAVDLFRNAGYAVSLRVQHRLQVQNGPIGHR

T2: MPP6, Q9NZW5
T2 sequence (Q9NZW5 125-219, limits assumed, looked up): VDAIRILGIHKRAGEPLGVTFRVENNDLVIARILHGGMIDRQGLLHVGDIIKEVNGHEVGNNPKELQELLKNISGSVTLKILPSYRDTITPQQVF

T3: PCLO, Q9Y6V0
T3 sequence (Q9Y6V0 4491-4600, limits assumed, looked up): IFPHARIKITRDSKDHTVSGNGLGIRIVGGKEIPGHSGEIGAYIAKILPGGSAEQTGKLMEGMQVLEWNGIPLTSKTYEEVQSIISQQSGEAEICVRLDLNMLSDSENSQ

T4: MPP7, Q5T2T1
T4 sequence (Q5T2T1 134-230, limits assumed, looked up): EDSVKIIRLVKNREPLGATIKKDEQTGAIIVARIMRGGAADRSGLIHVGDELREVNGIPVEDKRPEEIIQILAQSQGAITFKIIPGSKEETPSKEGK

T5: FRMPD1, Q5SYB0
T5 sequence (Q5SYB0 52-145, limits assumed, looked up): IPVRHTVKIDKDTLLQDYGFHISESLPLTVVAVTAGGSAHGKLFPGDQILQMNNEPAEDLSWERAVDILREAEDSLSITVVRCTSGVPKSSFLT

T6: GRIP1_7, Q9Y3R0
T6 sequence (Q9Y3R0 999-1096, limits assumed, looked up): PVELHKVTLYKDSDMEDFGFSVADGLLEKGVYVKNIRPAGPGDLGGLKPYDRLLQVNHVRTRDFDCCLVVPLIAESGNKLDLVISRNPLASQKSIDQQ

T7: PTPN13_1, Q12923
T7 sequence (Q12923 1088-1188, limits assumed, looked up): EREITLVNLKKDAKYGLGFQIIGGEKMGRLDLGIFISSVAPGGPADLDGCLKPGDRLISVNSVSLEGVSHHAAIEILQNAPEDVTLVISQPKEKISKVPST

T8: LIN7A, O14910
T8 sequence (O14910 103-200, limits assumed, looked up): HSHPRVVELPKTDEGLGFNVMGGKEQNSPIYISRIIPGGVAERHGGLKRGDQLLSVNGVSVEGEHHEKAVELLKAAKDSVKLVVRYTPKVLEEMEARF

T9: GRIP1_5, Q9Y3R0
T9 sequence (Q9Y3R0 568-668, limits assumed, looked up): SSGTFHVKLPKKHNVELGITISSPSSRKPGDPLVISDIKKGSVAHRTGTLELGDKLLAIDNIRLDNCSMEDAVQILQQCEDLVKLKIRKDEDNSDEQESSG

T10: ARHGAP21, Q5T5U3
T10 sequence (Q5T5U3 45-169, limits assumed, looked up): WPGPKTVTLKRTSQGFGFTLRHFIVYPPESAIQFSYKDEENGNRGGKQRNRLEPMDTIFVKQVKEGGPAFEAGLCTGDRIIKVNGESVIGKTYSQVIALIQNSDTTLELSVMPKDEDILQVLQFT

T11: PDZRN3_1, Q9UPQ7
T11 sequence (Q9UPQ7 244-349, limits assumed, looked up): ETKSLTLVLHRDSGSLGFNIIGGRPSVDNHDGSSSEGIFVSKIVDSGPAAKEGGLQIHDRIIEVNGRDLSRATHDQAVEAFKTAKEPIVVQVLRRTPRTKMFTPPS


Columns and labels:
Assay in all cases: holdup assay
Design in all cases: key: below the threshold = too weak to quantify, mostly under pKd 3.1 to 4
Settings in all cases: plain residues with an end cap or a label only (N-terminal biotin on a linker: ado-ado)
SYNJ2BP, P57105 = molecular target: T1, SYNJ2BP, P57105
DLG4_1, P78352 = molecular target: DLG4_1, P78352
MPP6, Q9NZW5 = molecular target: T2, MPP6, Q9NZW5
MAGI2_5, Q86UL8 = molecular target: MAGI2_5, Q86UL8
GRASP, Q7Z6J2 = molecular target: GRASP, Q7Z6J2
PCLO, Q9Y6V0 = molecular target: T3, PCLO, Q9Y6V0
MPP7, Q5T2T1 = molecular target: T4, MPP7, Q5T2T1
FRMPD1, Q5SYB0 = molecular target: T5, FRMPD1, Q5SYB0
GRIP1_7, Q9Y3R0 = molecular target: T6, GRIP1_7, Q9Y3R0
Inadl_4, Q8NI35 = molecular target: Inadl_4, Q8NI35
MAGI1_1, Q96QZ7 = molecular target: MAGI1_1, Q96QZ7
GRIP2_3, Q9C0E4 = molecular target: GRIP2_3, Q9C0E4
GRID2IP_1, A4D2P6 = molecular target: GRID2IP_1, A4D2P6
Inadl_3, Q8NI35 = molecular target: Inadl_3, Q8NI35
FRMPD4, Q14CM0 = molecular target: FRMPD4, Q14CM0
MAGI1_2, Q96QZ7 = molecular target: MAGI1_2, Q96QZ7
PTPN13_1, Q12923 = molecular target: T7, PTPN13_1, Q12923
NHERF4_2, Q86UT5 = molecular target: NHERF4_2, Q86UT5
LIN7A, O14910 = molecular target: T8, LIN7A, O14910
GRIP1_5, Q9Y3R0 = molecular target: T9, GRIP1_5, Q9Y3R0
MAGI2_3, Q86UL8 = molecular target: MAGI2_3, Q86UL8
SCRIB_2, Q14160 = molecular target: SCRIB_2, Q14160
MAST2, Q6P0Q8 = molecular target: MAST2, Q6P0Q8
HTRA1, Q92743 = molecular target: HTRA1, Q92743
ARHGAP21, Q5T5U3 = molecular target: T10, ARHGAP21, Q5T5U3
GRIP2_6, Q9C0E4 = molecular target: GRIP2_6, Q9C0E4
PDZRN3_1, Q9UPQ7 = molecular target: T11, PDZRN3_1, Q9UPQ7

Sequence of MAGI2_3, Q86UL8 (Q86UL8 600-682): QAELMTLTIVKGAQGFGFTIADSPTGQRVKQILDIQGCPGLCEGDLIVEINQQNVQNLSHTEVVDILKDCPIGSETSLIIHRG
Sequence of MAGI1_2, Q96QZ7 (Q96QZ7 456-580): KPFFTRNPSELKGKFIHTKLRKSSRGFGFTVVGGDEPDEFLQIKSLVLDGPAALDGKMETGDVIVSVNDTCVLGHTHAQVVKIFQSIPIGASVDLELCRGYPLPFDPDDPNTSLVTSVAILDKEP
Sequence of SCRIB_2, Q14160 (Q14160 857-960): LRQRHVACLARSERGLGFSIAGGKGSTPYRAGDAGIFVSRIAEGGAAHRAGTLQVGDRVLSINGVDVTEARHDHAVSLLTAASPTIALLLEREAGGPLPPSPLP
Sequence of GRIP2_3, Q9C0E4 (Q9C0E4 238-339): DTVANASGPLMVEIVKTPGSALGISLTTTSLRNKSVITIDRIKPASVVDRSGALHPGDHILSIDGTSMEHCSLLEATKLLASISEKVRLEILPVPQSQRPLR
Sequence of FRMPD4, Q14CM0 (Q14CM0 67-160): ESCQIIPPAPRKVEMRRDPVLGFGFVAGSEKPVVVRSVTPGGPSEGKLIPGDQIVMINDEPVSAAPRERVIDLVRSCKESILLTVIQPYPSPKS
Sequence of MAST2, Q6P0Q8 (Q6P0Q8 1099-1202): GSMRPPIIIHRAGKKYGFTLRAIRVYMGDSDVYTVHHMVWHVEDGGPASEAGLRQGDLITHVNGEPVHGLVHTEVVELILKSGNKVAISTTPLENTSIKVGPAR
Sequence of GRASP, Q7Z6J2 (Q7Z6J2 96-193): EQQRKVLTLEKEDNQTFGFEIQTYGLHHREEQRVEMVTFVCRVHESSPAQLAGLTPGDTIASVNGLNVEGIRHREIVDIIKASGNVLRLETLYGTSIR
Sequence of MAGI1_1, Q96QZ7 (Q96QZ7 1-106): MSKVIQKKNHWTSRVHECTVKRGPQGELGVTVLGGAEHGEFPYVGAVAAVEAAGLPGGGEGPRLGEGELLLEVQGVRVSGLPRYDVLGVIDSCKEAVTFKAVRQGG
Sequence of DLG4_1, P78352 (P78352 62-152): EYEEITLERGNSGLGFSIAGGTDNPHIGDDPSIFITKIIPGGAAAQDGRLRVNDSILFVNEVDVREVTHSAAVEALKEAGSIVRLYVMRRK
Sequence of Inadl_3, Q8NI35 (Q8NI35 359-469): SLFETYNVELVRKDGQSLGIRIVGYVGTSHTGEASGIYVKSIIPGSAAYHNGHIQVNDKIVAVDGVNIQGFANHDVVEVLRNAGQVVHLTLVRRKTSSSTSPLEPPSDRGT
Sequence of Inadl_4, Q8NI35 (Q8NI35 547-651): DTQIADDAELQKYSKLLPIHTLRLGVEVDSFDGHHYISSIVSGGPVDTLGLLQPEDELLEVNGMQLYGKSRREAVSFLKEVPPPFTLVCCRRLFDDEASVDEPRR
Sequence of GRID2IP_1, A4D2P6 (A4D2P6 1-87): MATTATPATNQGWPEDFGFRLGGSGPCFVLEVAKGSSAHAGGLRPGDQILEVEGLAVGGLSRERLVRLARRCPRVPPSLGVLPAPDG
Sequence of NHERF4_2, Q86UT5 (Q86UT5 220-308): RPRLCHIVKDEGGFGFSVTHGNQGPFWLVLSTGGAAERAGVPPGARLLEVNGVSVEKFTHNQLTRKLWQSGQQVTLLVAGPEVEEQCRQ
Sequence of HTRA1, Q92743 (Q92743 360-477): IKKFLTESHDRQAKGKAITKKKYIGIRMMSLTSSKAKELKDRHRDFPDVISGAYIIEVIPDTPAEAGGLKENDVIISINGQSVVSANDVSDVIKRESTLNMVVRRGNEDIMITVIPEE
Sequence of MAGI2_5, Q86UL8 (Q86UL8 915-1017): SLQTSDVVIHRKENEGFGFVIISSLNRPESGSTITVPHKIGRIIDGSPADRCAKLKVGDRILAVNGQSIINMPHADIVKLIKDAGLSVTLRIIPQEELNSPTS
Sequence of GRIP2_6, Q9C0E4 (Q9C0E4 648-740): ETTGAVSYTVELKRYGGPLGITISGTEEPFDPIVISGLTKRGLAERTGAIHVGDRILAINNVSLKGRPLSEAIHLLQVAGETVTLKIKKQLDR

pKd (SYNJ2BP, P57105) | pKd (DLG4_1, P78352) | pKd (MPP6, Q9NZW5) | pKd (MAGI2_5, Q86UL8) | pKd (GRASP, Q7Z6J2) | pKd (PCLO, Q9Y6V0) | pKd (MPP7, Q5T2T1) | pKd (FRMPD1, Q5SYB0) | pKd (GRIP1_7, Q9Y3R0) | pKd (Inadl_4, Q8NI35) | pKd (MAGI1_1, Q96QZ7) | pKd (GRIP2_3, Q9C0E4) | pKd (GRID2IP_1, A4D2P6) | pKd (Inadl_3, Q8NI35) | pKd (FRMPD4, Q14CM0) | pKd (MAGI1_2, Q96QZ7) | pKd (PTPN13_1, Q12923) | pKd (NHERF4_2, Q86UT5) | pKd (LIN7A, O14910) | pKd (GRIP1_5, Q9Y3R0) | Binder | other results
below the threshold | below the threshold | below the threshold | below the threshold | below the threshold | below the threshold | 4.05 | below the threshold | below the threshold | below the threshold | 3.74 | below the threshold | below the threshold | below the threshold | 4.64 | below the threshold | below the threshold | below the threshold | below the threshold | below the threshold | QPCFNKLFPL [LPXN, O60711] | pKd (MAGI2_3, Q86UL8): below the threshold; pKd (SCRIB_2, Q14160): below the threshold; pKd (MAST2, Q6P0Q8): 4.75; pKd (HTRA1, Q92743): below the threshold; pKd (ARHGAP21, Q5T5U3): 3.91; pKd (GRIP2_6, Q9C0E4): below the threshold; pKd (PDZRN3_1, Q9UPQ7): below the threshold
4.09 | below the threshold | below the threshold | below the threshold | 4.31 | below the threshold | below the threshold | below the threshold | below the threshold | below the threshold | below the threshold | below the threshold | below the threshold | below the threshold | below the threshold | 4.13 | below the threshold | below the threshold | 3.52 | below the threshold | PRISRSQSEL [CCDC134, Q9H6E4] | pKd (MAGI2_3, Q86UL8): below the threshold; pKd (SCRIB_2, Q14160): below the threshold; pKd (MAST2, Q6P0Q8): 5.76; pKd (HTRA1, Q92743): below the threshold; pKd (ARHGAP21, Q5T5U3): below the threshold; pKd (GRIP2_6, Q9C0E4): below the threshold; pKd (PDZRN3_1, Q9UPQ7): 3.65
